Measured values from the DeepSol protein solubility set.

Test: soluble on expression in E. coli; label from the status in PepcDB or PDB records
In the case of “MGSDKIHHHHHHMLLYIHGFNSSPFSDKAVITARYMAEYHPSLTFHQPQLPNTPKAAMALLQSYVEAAQQANEPLNYIGSSLGGYFASYLAERYGGRAVLVNPAVKPFELFDEFMGPQFNPYTQEHYQVLPEHKREVAEFNTPVIRNPERFLVLLQTGDEVLDYREALHKYHHCQLRIESGGDHSFVGYERYLQTVSQFLHLP”, the “soluble on expression in E. coli” value is reported as “not soluble”.
In the case of “MNAHVTSREGVNEFDDGIVIVGGGLAAARTAEQLRRAGYSGRLTIVSDEVHLPYDRPPLSKEVLRSEVDDVALKPREFYDEKDIALRLGSAAVSLDTGEQTVTLADGTVLGYDELVIATGLVPRRIPSLPDLDGIRVLRSFDESMALRKHASAARHAVVVGAGFIGCEVAASLRGLGVDVVLVEPQPAPLASVLGEQIGQLVTRLHRDEGVDVRTGVTVAEVRGKGHVDAVVLTDGTELPADLVVVGIGSTPATEWLEGSGVEVDNGVICDKAGRTSAPNVWALGDVASWRDPMGHQARVEHWSNVADQARVVVPAMLGTDVPTGVVVPYFWSDQYDVKIQCLGEPHATDVVHLVEDDGRKFLAYYERDGVLVGVVGGGMAGKVMKVRGKIAAGAPIAEVLDQTQA”, the “soluble on expression in E. coli” value is reported as “soluble”.
For “MVDPNEHKKAVKTQQQDDEQTFEAVARAWHTDNKKWSESHAERILKSLSDNIFPAIGGTHVANLKTRDLLTPIKSVERSGRLEVAKRLKQRVTAIMTYAVQNGLIDYNPAQDMAGAIMPGKVEHRLEHHHHHH”, the “soluble on expression in E. coli” value was “not soluble”.
For “MKKTLILGATPETNRYAYLAAERLKSHGHEFIPVGRKKGEVLGKTIINERPVIEGVDTVTLYINPQNQLSEYNYILSLKPKRVIFNPGTENEELEEILSENGIEPVIGCTLVMLSAGT”, the “soluble on expression in E. coli” value was “not soluble”.
In the case of “MSLKGTYVLLLKLEESVALRYGKKASHLEPGYYAYVGSAMGGFFKRIPRYFLGSRKRHWHIDYLLDHAQIAGLIMFSGKRIEEEISNVLSYHFEGIEDFGASDLRVKTNLYHVDPDKLFSLLGGFRENRDIRRAQKHRGKQNQSGEGHHHHHH”, the “soluble on expression in E. coli” value is reported as “soluble”.
With “DIHQEMDREELELEEVDLYRMNSQDKLGLTVCYRTDDEDDIGIYISEIDPNSIAAKDGRIREGDRIIQINGIEVQNREEAVALLTSEENKNFSLLIARPELQLDEGWMDDD” the “soluble on expression in E. coli” value was “soluble”.
In the case of “MGSDKIHHHHHHVEGDCMGKGRFILMLHAHLPFINHPDFPSFMEERWLFEAITETYIPLLQGFRRLKRDGVNFKVTMSITPPLMEMFANKDLQKKYLNYLSSSIELAGNEISRTVSEHPAANRLATHYLRELEEIRAVYNECNGDLVGEFAQLQETGELEIVTCNATHGFLPLMTNFPEAINAQIEIGVDSYKKHTGREPRGIWLAECGYVPGFDSYLREHGLSFFFVDSHSLWYGDPAPRYGVYRPVVTPENVFAFARDPESSQQVWSAEVGYPGDARYREFYRDVGFDREEDYIRPYIDPSGERCNTGIKYYKITGKDVSLNEKGYYDIEDARRATVEHAKDFANRKREQIRRLSSQFDGEEPVIVAPFDAELFGHWWYEGPLFIEELFRELNGDITVVPSTPPEVIKSMEQAQVVTP”, the “soluble on expression in E. coli” value is reported as “not soluble”.
For “MDTVNNYRVLEHKAAGHDGTLTDGDGLLIFKPAFPQELEFYKAIQVRDVSRRKSSADGDAPLCSWMPTYLGVLNEGAKIEQSGDAALLKIDERLSDSTDNLDSIPVKSEKSKQYLVLENLLYGFSKPNILDIKLGKTLYDSKASLEKRERMKRVSETTTSGSLGFRICGMKIQKNPSVLNQLSLEYYEEEADSDYIFINKLYGRSRTDQNVSDAIELYFNNPHLSDARKHQLKKTFLKRLQLFYNTMLEEEVRMISSSLLFIYEGDPERWELLNDVDKLMRDDFIDDDDDDDDNDDDDDDDAEGSSEGPKDKKTTGSLSSMSLIDFAHSEITPGKGYDENVIEGVETLLDIFMKFLEHHHHHH”, the “soluble on expression in E. coli” value was “soluble”.
For “QRQSPIYHAQATVLIKSAEKSGATSGLQQFQELGLMIGNSEVENEILMLKSKRLTAIVVDKLDLDVSIYKQGFWRNESLYGNSPVSIQITDRDSTENYSFRIQINDAHSFQLTHFEQKERNGIGDIKIDGSFGRPIATPVGELKLNTTLFFADSWKGEVLYVTKENTRKVVERYNQDLQVSLADKKATIVNLSLKNEDLDRAKNFIDALIASYNDDVMNDKKSVAVSTAAFIDERLAMIGGELGTVDTEIETFKKRNNITDISTDVGTYLKSSADLQKDQLIVERNLSLAKYIQSFLRQTSTDNELMPANLGLTERGIDNSITLYNELKLKYDRLKQSSSENSPAVQEVGMQLVAMRKSINAAVDNYIKTLNLQLREVNKEMSRTKEQISAVPTQEKIMSTILRQQKIKEELYLYLLNKREENALRLAITESNAKTVDSADGSSEPISPRKP”, the “soluble on expression in E. coli” value was “not soluble”.
With “MGSDKIHHHHHHMDTDLLRAFVTVAECEGFSAAGKVLHRTQSAVSLQIKRLEDQMGESLFERTSRSVVLTPPGGRLLPYARHILKLQDEARRVMGVDRQGELIRLGTSEEQASTYLPELLPRFAARFPEVRLEVSCSISGSLVHDFQEGLLDVALVVRHGPTQTGRLLGREPMVWVVAEDRAIDDWEILPLALNPEGCIFRAHAFAALGPTERRWDVRYSSRSPTGINLPVQAGLAATVKTPRSVPEGCRIVGEEEGLPPLGHVEIEMHRTPGHSSDAFVAFCDELEHIVTATDSLESLEYVAAEG” the “soluble on expression in E. coli” value was “not soluble”.
In the case of “IGADVDLATLSGLDGAALHFEQTIFILDNGTGQPTGGEWQGAVGSYFGGAPLHNDIASNQLSLLTYKQKWLDGQLDLHVGRTNGRRYFYIYNCETGVTCNDPILDASSGMLPPPFGAWGGYLKYQVNPRFYVHAGAFESNPVDYLKKRKGLDFSTDDASGTSFLVGIGSKPGDNTTQYELNA”, the “soluble on expression in E. coli” value is reported as “not soluble”.
For “ASWSHPQFEKGAMALTEAWLIEKANRKLNAGGMYKITSDKTRNVIKKMAKEGIYLCVAQGYRSTAEQNALYAQGRTKPGAIVTNAKGGQSNHNYGVAVDLCLYTNDGKDVIWESTTSRWKKVVAAMKAEGFKWGGDWKSFKDYPHFELCDAVSGEKIPAATQNTNTNSNRYEGKVIDSA”, the “soluble on expression in E. coli” value was “soluble”.
For “MSDEAIHDIFVIGGGINGCGIARDAVGRGYSVALAEMNDFASGTSSAATKLIHGGLRYLEHYEFRLVREALMEREVLWAMAPHIIWPMRFVLPFQKGGVRPAWLVRLGLFLYDHLGGRKLLPATRSLDLRRDPAGKPLKPIFARAFEYSDGWVDDARLVVLNARDAADRGAVILNRTQVVSARREGAFWRVETKNAAGESKTYRARMLVNAAGPWVDKVLAATFGKNNVHNVRLVQGSHIIVRKKFADPRAYFFQNPDGRIIFAIPYEQDFTLIGTTDRDYTADPRAVKISDEEISYLCNAASEYFAEPVKPADIVWTYSGVRPLFDDGASKAQEATRDYVLKTEGAEGEAPLLNIFGGKLTTYRRLAEHALEKIGDALGEKGTPWTAGSHLPGGNFGAEAYAEEVKALRSRYPFLDRRHAERLVRCYGTDAVAIIGAAADTTALGRHFGGTLYEAEVRWLMAREWALTAEDILWRRTKQGLFLTPEEVLGLTDYIDDIAGGRLKAILEHHHHHH”, the “soluble on expression in E. coli” value was “soluble”.
In the case of “MEKATKRNDEECEVQLNIKRNSKHSAWTGELFKIECPVKYCVHRPNVTWCKHNGTIWVPLEVGPQLYTSWEENRSVPVFVLHFKPIHLSDNGSYSCSTNFNSQVINSHSVTIHVRERSQNSS”, the “soluble on expression in E. coli” value is reported as “soluble”.
In the case of “MGSDKIHHHHHHMHGKLVEVADGVYAYIQGRGEWFVNNAGLIVGEEFSVVVDSVCNEQRAKEMISQFREVTAKDFRILINTHGHPDHVWTNHLFDAVAVAHEMGRQETLMAFVEIYQSLFPDLDFSGAKITPQNITFESRMKLYNDAEMQIIHPGVAHTRGDCYIYIPQKKVVFCGDLLFAKPCTPLAVGGSVRGSVNALRELLNLDAKIYVPGHGGLAGEEHLVEAIEYFEFVWEEAKKRHERGMGWYEAAMDIDLGEYAKWSEAERIVGNVARAYAEIEGRELEFAELVEVARKMLEYGGGRK”, the “soluble on expression in E. coli” value is reported as “not soluble”.
For “MGSDKIHHHHHHMIGDMNELLLKSVEVLPPLPDTVSKLRKYVSEANSNIETMKVAEIISSDPLMTAKLLQLANSPYYGFTREITTINQVITLLGVGNIINIVMADSIRDNFKIDVSPYGLNTQNFLKTCNEEATFIANWLNDEDKKLSHLLVPCAMLLRLGIVIFSNFLIQNHKDKDFLAFLNKNENLALAENEFLGVDHISFLGFLLHRWNFDDVLIESICFVRTPHAAREKVKKSAYALAITDHLFAPHDGSSPFNAKAAVALLKEAKTQGINFDLNNLLSKLPNKAKENLNKED”, the “soluble on expression in E. coli” value was “soluble”.
For “MGSDKIHHHHHHMIIMTYYTFVKPFFIKAVTHLHVSSGTSVEEEVDLPFQRDELNYPTIFASSLKGAIKSFLLKEYSNAREIIYKVLGSDENPDEASLGSFLDAVLFAIPARSIGVSGLDEAWVYVTTYELLRKVKSLLESMNTLSATQFTSLLDAINNILQESKNLIISDNAASVILNEDFYVELSNIQNEYIQSLLGDMLIENSTYNQSNQNSQSQGNHLVKPLIVLKDSIGREVINRSLIRVRRIKIKRSSKTVEEGGLWSEEYVPVNSLFFSSFLARGSKDTAYFADCILRKTRYLILGGKETIGKGIVELRWLND”, the “soluble on expression in E. coli” value was “not soluble”.
With “GSSHHHHHHSSGLVPRGSHMRIVFDIGGSVLVPENPDIDFIKEIAYQLTKVSEDHEVAVVVGGGKLARKYIEVAEKFNSSETFKDFIGIQITRANAMLLIAALREKAYPVVVEDFWEAWKAVQLKKIPVMGGTHPGHTTDAVAALLAEFLKADLLVVITNVDGVYTADPKKDPTAKKIKKMKPEELLEIVGKGIEKAGSSSVIDPLAAKIIARSGIKTIVIGKEDAKDLFRVIKGDHNGTTIEP” the “soluble on expression in E. coli” value was “soluble”.
In the case of “NEKITKKDALELFSLPIHAVGRIADEIRKVKCGDLVTFVNDTNINYTNICLSKCRFCAFYAREKGYVLSHEEILRKVGYAVKMGATQIMLQGGMNPDLGLEWFEELFRKIKARFSSVHIHSLSPPEIVFLAKLERSSIREVLDRLKAAGLDSLPGGGAEILVDSVRRKISPNKCSSDEWLRVMETAHSLNMPTTATMMFGHVESDGDIVEHLIKIRELQEKTGGFTAFIPWTFQPGNTELYAEIKRPVSPLRYLQVLAISRIVLNNFRNIQASWLTQGFEIATLSLFFGANDFGGTMLEENVVRATGKDFRPAKIEEIVKAVKAVGRPVALR”, the “soluble on expression in E. coli” value is reported as “soluble”.
For “MCEQGVSYYNSQELKCCKLCKPGTYSDHRCDKYSDTICGHCPSDTFTSIYNRSPWCHSCRGPCGTNRVEVTPCTPTTNRICHCDSNSYCLLKASDGNCVTCAPKTKCGRGYGKKGEDEMGNTICKKCRKGTYSKTGHHHHHH”, the “soluble on expression in E. coli” value was “soluble”.
In the case of “MSLKEELLEAIYGTVERLEQKVDELSASPKNTEAESTPVSVSVDTSKLEKAILAMAVKEGEAIDKLVRLREAICIFTDLTKKEASKDEQRSKLLFDTINQVKQELNATSKNVQDKLHAMDNAPLKKVVTHRFEPTSKYVLLFIGGLALSLVISIWGNLAQWREYQAWEVADLKYRALKMVLPSDDPNVRYIEKHFSVCRDEKVIDDVRNCVAAYEDSIRHHHEMVEMATYKDSIANKLLQESNRIIRAMKSSKEGHHHHHH”, the “soluble on expression in E. coli” value is reported as “not soluble”.
With “MGSDKIHHHHHHMKKPQSNFPHLQLKDGILKDQLYHAFREAILDGRLHPRMKLPSSRALSETMQISRNSVLQGFERLIDEGYLLTKPGSGTYVSDTIPDELIDIPNSSRESAQAFDSNVDINPQLIEMARLKAKGNTDHSHSMLNIGVGCVDLFPHQLWGRLLGRVWRQSRKTLGKSNHSAGYLPLREAISDYARSTRGLNCTPEQIIIVNGTQQAINLTAQVLLQQGDEVWLDEPGYDGALGAFLSQNMRVRPVSVDVEGTNIADAIQRYPAVKLAFTAPSHQFPLGGMLSLPRRLALLDWAAEQSKWILEDDYNGEFRYSARPIQALQGLDKYQRVIYAGTFSKMLLPELRLGFLVVPSKLVQAFQLAKHYADTHTAHLEQATLALFITEGHYARHVRRVRKACLARQTALIAAIEQYLPDKLSVQTSDSGIHLVCWLKGDLTEEKVINKCRQLSLGAQPLSRYCQAPYPRQAILLGYAAHTPDELRESIKKLAQIL” the “soluble on expression in E. coli” value was “not soluble”.
